Experimental data taken from the supplement of paper PMC10724198.
± gives the standard deviation of the averaged measurements.

Test system: Saccharomyces cerevisiae
Assay: protein stability index of tFT-peptide fusion (C-terminal peptide) (PSI (0-1 scale)); higher = more stable (slower turnover)
Conditions: temperature: 30 C
Method: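 MPS profiling in S. cerevisiae of the yeast C-terminome library: the last 12 aa of each annotated ORF are fused to the C-terminus of a sfGFP-mCherry timer, after a GGGS linker. Cells are FACS-sorted into 8 mCherry/sfGFP bins and deep-sequenced. PSI runs from 0 (unstable) to 1 (stable); wild type and das1Δ backgrounds, two technical replicates each.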

[1] = genetic background: das1 deletion

| Sequence | protein stability index [1] | protein stability index (genetic background: wild type) |
| --- | --- | --- |
| KPIGEAAAIKEK [YLH47 C-terminal 12 aa] | 0.696 ± 0.027 | 0.707 ± 0.044 |
| LLEVSDQAFEPE [RGD1 C-terminal 12 aa] | 0.6967 ± 0.0019 | 0.683 ± 0.053 |
| DAMEFIAQSHKS [OCT1 C-terminal 12 aa] | 0.694 ± 0.011 | 0.719 ± 0.021 |
| SEFPTCCDQAAI [SLZ1 C-terminal 12 aa] | 0.707 ± 0.01 | 0.721 ± 0.0094 |
| NVSDLFQWQNAK [CAT8 C-terminal 12 aa] | 0.744 ± 0.017 | 0.683 ± 0.047 |
| LTEILSKVFNRL [DUG2 C-terminal 12 aa] | 0.702 ± 0.018 | 0.678 ± 0.033 |
| GLQNRLARNNEK [MRP4 C-terminal 12 aa] | 0.734 ± 0.018 | 0.6607 ± 0.0019 |
| ASFAKDVISLPE [YER046W-A C-terminal 12 aa] | 0.7202 ± 0.00094 | 0.699 ± 0.079 |
| EWEEKQGMDFVR [GPN2 C-terminal 12 aa] | 0.7083 ± 0.0027 | 0.685 ± 0.0095 |
| VLMKQLDEIIRK [BUD14 C-terminal 12 aa] | 0.6982 ± 0.0046 | 0.704 ± 0.058 |
| NIIHSGDVLLAE [LEU9 C-terminal 12 aa] | 0.677 ± 0.019 | 0.708 ± 0.035 |
| TSPRAINPKRSA [YDL114W C-terminal 12 aa] | 0.695 ± 0.021 | 0.703 ± 0.02 |
| IDKFLNSAVLSA [YMR307C-A C-terminal 12 aa] | 0.5813 ± 0.0033 | 0.637 ± 0.017 |
| TISNPFGDHNKI [LSB5 C-terminal 12 aa] | 0.727 ± 0.034 | 0.738 ± 0.099 |
| VPPRSASASSQR [SPC97 C-terminal 12 aa] | 0.689 ± 0.018 | 0.684 ± 0.015 |
| FVFVRYFNYADS [YCR081C-A C-terminal 12 aa] | 0.631 ± 0.023 | 0.622 ± 0.011 |
| QIPPEVQKWYYV [PPA2 C-terminal 12 aa] | 0.71952 ± 0.00036 | 0.593 ± 0.02 |
| ILVLRHFDEIFI [YOR032W-A C-terminal 12 aa] | 0.63 ± 0.0065 | 0.655 ± 0.044 |
| VDKYEAGMSITK [SWC4 C-terminal 12 aa] | 0.688 ± 0.0058 | 0.671 ± 0.03 |
| SSFEKFQYYSKA [AGP2 C-terminal 12 aa] | 0.72 ± 0.024 | 0.688 ± 0.049 |
| SCQRILQELEKP [CAK1 C-terminal 12 aa] | 0.689 ± 0.0094 | 0.705 ± 0.055 |

| Sequence | protein stability index [1] | protein stability index (genetic background: wild type) |
| --- | --- | --- |
| TCVYKKPERHKA [TCM62 C-terminal 12 aa] | 0.707 ± 0.03 | 0.701 ± 0.024 |
| IVIQVNNPLTRD [DOG2 C-terminal 12 aa] | 0.692 ± 0.099 | 0.643 ± 0.0052 |
| LFSDKMEPLFKK [AIF1 C-terminal 12 aa] | 0.746 ± 0.018 | 0.738 ± 0.012 |
| FRLQEEQTNMRS [MSM1 C-terminal 12 aa] | 0.713 ± 0.02 | 0.758 ± 0.02 |
| MMNFFRDLKYGH [ODC2 C-terminal 12 aa] | 0.704 ± 0.004 | 0.693 ± 0.018 |
| GRDCISKRAILE [IMP2 C-terminal 12 aa] | 0.7067 ± 0.0024 | 0.6702 ± 0.004 |
| YSDEASAQKKRF [RPS2 C-terminal 12 aa] | 0.698 ± 0.0098 | 0.709 ± 0.039 |
| PRPACGVIGLTN [SOD1 C-terminal 12 aa] | 0.713 ± 0.03 | 0.726 ± 0.008 |
| STKFEEDQVAPL [ICP55 C-terminal 12 aa] | 0.679 ± 0.007 | 0.686 ± 0.029 |
| DNFRERYFNNFN [TRM11 C-terminal 12 aa] | 0.71368 ± 0.00039 | 0.6816 ± 0.0054 |
| SGLIIAEAGIGG [YAL031W-A C-terminal 12 aa] | 0.7001 ± 0.005 | 0.7129 ± 0.0038 |
| IQEISAAVKKYT [SAM4 C-terminal 12 aa] | 0.704 ± 0.014 | 0.728 ± 0.038 |
| YPGAKTLTYTSR [CMI8 C-terminal 12 aa] | 0.703 ± 0.013 | 0.673 ± 0.01 |
| VPLESTKRQPLH [YBR053C C-terminal 12 aa] | 0.719 ± 0.0097 | 0.704 ± 0.026 |
| AALESEDEDDEA [CAF20 C-terminal 12 aa] | 0.685 ± 0.041 | 0.6667 ± 0.0033 |
| THPAGTLENATQ [YIL102C C-terminal 12 aa] | 0.694 ± 0.022 | 0.742 ± 0.017 |
| WKKFIPKTWLSS [CQD2 C-terminal 12 aa] | 0.7 ± 0.0086 | 0.4878 ± 0.0047 |
| ENAGKIFFNETE [YHR213W-A C-terminal 12 aa] | 0.733 ± 0.029 | 0.684 ± 0.033 |
| AERAGNAGVKAE [SND3 C-terminal 12 aa] | 0.654 ± 0.0096 | 0.685 ± 0.017 |
| ISEIEQLLSKLK [ATP4 C-terminal 12 aa] | 0.698 ± 0.014 | 0.684 ± 0.045 |
| KNRKRVLGVAYL [PXP3 C-terminal 12 aa] | 0.783 ± 0.022 | 0.837 ± 0.063 |

| Sequence | protein stability index [1] | protein stability index (genetic background: wild type) |
| --- | --- | --- |
| EEFNKQLKDIEA [YOR289W C-terminal 12 aa] | 0.69 ± 0.026 | 0.661 ± 0.017 |
| DKELDSTFDTFG [MIF2 C-terminal 12 aa] | 0.701 ± 0.012 | 0.699 ± 0.023 |
| KICVTLIVNELI [YLR342W-A C-terminal 12 aa] | 0.4662 ± 0.0016 | 0.39 ± 0.028 |
| GVVKFNSEHYRD [SAP185 C-terminal 12 aa] | 0.721 ± 0.045 | 0.668 ± 0.034 |
| CSTFAFAERLQC [YIL021C-A C-terminal 12 aa] | 0.6901 ± 0.003 | 0.642 ± 0.029 |
| KATQAIIGYTFK [VMA13 C-terminal 12 aa] | 0.70395 ± 0.00035 | 0.71 ± 0.023 |
| ADQELFMGIMNA [NMD5 C-terminal 12 aa] | 0.676 ± 0.012 | 0.677 ± 0.0097 |
| RVPKKNGKLSKK [PDR5 C-terminal 12 aa] | 0.7012 ± 0.0033 | 0.704 ± 0.055 |
| LRKDRQVEYPYK [MGM101 C-terminal 12 aa] | 0.723 ± 0.033 | 0.779 ± 0.035 |
| GTDLLKENRNCS [YML096W C-terminal 12 aa] | 0.669 ± 0.0067 | 0.6895 ± 0.0012 |
| TFHTVGDRYEMA [YPR127W C-terminal 12 aa] | 0.7019 ± 0.006 | 0.69654 ± 0.00054 |
| SPEIDDSSLACH [CTR2 C-terminal 12 aa] | 0.707 ± 0.0085 | 0.6821 ± 0.0044 |
| DRIESSSGRISW [SPC110 C-terminal 12 aa] | 0.702 ± 0.022 | 0.681 ± 0.028 |
| EGVVLGQRRDIV [SCP1 C-terminal 12 aa] | 0.696 ± 0.028 | 0.672 ± 0.0097 |
| FELAKVSFDNKR [YKR104W C-terminal 12 aa] | 0.736 ± 0.031 | 0.707 ± 0.095 |
| KWLLKPCIYKRR [RRP8 C-terminal 12 aa] | 0.717 ± 0.0061 | 0.691 ± 0.016 |
| DTGNTIKCEFIL [ERG29 C-terminal 12 aa] | 0.7022 ± 0.0068 | 0.699 ± 0.017 |
| MWPMPSLPWNGM [TSR1 C-terminal 12 aa] | 0.727 ± 0.019 | 0.687 ± 0.017 |
| ENLTQKKKQSAN [PCT1 C-terminal 12 aa] | 0.703 ± 0.0058 | 0.65 ± 0.011 |
| DNQSLPNSEKIK [CST6 C-terminal 12 aa] | 0.711 ± 0.017 | 0.7044 ± 0.0021 |
| HHVESVCIMKRI [TRM2 C-terminal 12 aa] | 0.668 ± 0.014 | 0.675 ± 0.034 |

| Sequence | protein stability index [1] | protein stability index (genetic background: wild type) |
| --- | --- | --- |
| GWLQDSNFTKYL [FUN19 C-terminal 12 aa] | 0.6978 ± 0.0056 | 0.808 ± 0.13 |
| TQKLNEKSSKES [ATC1 C-terminal 12 aa] | 0.715 ± 0.031 | 0.644 ± 0.036 |
| LAFFKRDFFKGL [NDI1 C-terminal 12 aa] | 0.699 ± 0.02 | 0.569 ± 0.039 |
| PNKDVEQGNDMV [AKR1 C-terminal 12 aa] | 0.6883 ± 0.00087 | 0.695 ± 0.05 |
| NLPFYKNQATLQ [YBR131C-A C-terminal 12 aa] | 0.6902 ± 0.005 | 0.707 ± 0.031 |
| SSLMVIHPLDDT [MID1 C-terminal 12 aa] | 0.6918 ± 0.0012 | 0.695 ± 0.006 |
| AIRRENEWAEDR [SKP1 C-terminal 12 aa] | 0.6841 ± 0.005 | 0.709 ± 0.0089 |
| DKIQDARNSSTK [MHP1 C-terminal 12 aa] | 0.677 ± 0.028 | 0.702 ± 0.041 |
| SNLALAGGAFRP [TAF5 C-terminal 12 aa] | 0.711 ± 0.0013 | 0.688 ± 0.016 |
| LVKLYISFFFMC [YBR144C C-terminal 12 aa] | 0.313 ± 0.0049 | 0.136 ± 0.0087 |
| KLDDIIRARRSR [TGL3 C-terminal 12 aa] | 0.7405 ± 0.0066 | 0.692 ± 0.034 |
| EVDDDGEIEGLF [MIS1 C-terminal 12 aa] | 0.7072 ± 0.0051 | 0.684 ± 0.022 |
| RSRNKALVSVST [VPS63 C-terminal 12 aa] | 0.6496 ± 0.0045 | 0.667 ± 0.049 |
| SAAIGAQSGLYI [PBA1 C-terminal 12 aa] | 0.671 ± 0.021 | 0.67 ± 0.0091 |
| EERDRRRAQQGL [RPS4A C-terminal 12 aa] | 0.6948 ± 0.0053 | 0.692 ± 0.05 |
| AFTAKWKAENKQ [FYV4 C-terminal 12 aa] | 0.691 ± 0.017 | 0.6671 ± 0.0054 |
| DELTTVLNQLVR [EXO70 C-terminal 12 aa] | 0.6823 ± 0.0024 | 0.66 ± 0.011 |
| EKKYLNQSQNQA [BSD2 C-terminal 12 aa] | 0.684 ± 0.035 | 0.692 ± 0.059 |
| GMLGLSALLGGE [SEC11 C-terminal 12 aa] | 0.687 ± 0.019 | 0.678 ± 0.016 |
